Drawing on PMC11266573, this text covers Kd and percent decrease of the DNMT3A1 UDR association response for 2 substances.

Assay [1] concerns the target H2AK119ub1-modified nucleosome core particle (NCP) (Xenopus | not stated) (UniProt P0CG47). Put plainly: BLI; biotin-labeled nucleosomes immobilised on streptavidin (SA) XT biosensors (Gator), protein in solution; 30 °C, 1000 rpm; 20 mM Tris-HCl pH 7.5, 50 mM NaCl, 1 mM DTT, 0.01% Tween-20; 3 min association, 6 min dissociation. For orientation: Biolayer interferometry detects binding as a change in optical thickness at a sensor tip.

For assay [2] the target is unchanged. Nature of the assay: BLI; competition: DNMT3A1 UDR loaded to biosensors pre-loaded with H2AK119ub1-modified NCP and various concentrations of tag-free JARID2(1-60).

Take “GST-tagged N-terminal segment of JARID2 (residues 1–60) (from UniProt Q92833 1-60) (domain or fragment)”: the Kd – broadly, the concentration at which binding is half-saturated – in assay [1] worked out at 250 nM.
For “tag-free JARID2 N-terminal segment (residues 1–60) (from UniProt Q92833 1-60) (domain or fragment)”, the percent decrease of the DNMT3A1 UDR association response at a JARID2(1-60):DNMT3A1 UDR molar ratio of 32:1 in assay [2] turned out to be 40%.
